Assay results taken from patent publication US20210371516A1.
Changes are numbered by the printed parent chain.

B1: PTA-2358 VH1/VK1 IgG1 antibody (antibody, V domains shown)
VH: EVQLVQSGAELKKPGASVKLSCTASGFNIKDYYMHWVKQAPGQGLEWIGWIDPGNGDTECAPKFQGRATLTADTSINTAYLELSRLRSDDTAVYYCNAPYYSGSSHFDYWGQGTTVTVSS
VL: DIVLTQSPDSLAVSLGERATINCRASKSVSASGYSFLHWYQQKPGQPPKLLIYLASNLESGVPDRFSGSGSGTDFTLTISSLQEEDVATYYCQHSRELRTFGQGTKLEIK
B2: PTA-2358 VH5/VK2 IgG1 antibody (antibody, V domains shown)
VH: B1 VH with L11V, L20V, K38R, L70I, N77S, L81M
VL: B1 VL with E84A
B3: PTA-2358 VH4/VK1 IgG1 antibody (antibody, V domains shown)
VH: B1 VH with L11V, K38R, N77S
VL: B1 VL
B4: PTA-2358 VH2/VK1 IgG1 antibody (antibody, V domains shown)
VH: B1 VH with L11V
VL: B1 VL
B5: PTA-2358 VH4/VK2 IgG1 antibody (antibody, V domains shown)
VH: B1 VH with L11V, K38R, N77S
VL: B1 VL with E84A
B6: PTA-2358 VH5/VK1 IgG1 antibody (antibody, V domains shown)
VH: B1 VH with L11V, L20V, K38R, L70I, N77S, L81M
VL: B1 VL
B7: PTA-2358 VH3/VK1 IgG1 antibody (antibody, V domains shown)
VH: B1 VH with L11V, K38R
VL: B1 VL
B8: PTA-2358 VH2/VK2 IgG1 antibody (antibody, V domains shown)
VH: B1 VH with L11V
VL: B1 VL with E84A
B9: PTA-2357 VH4/VK2 IgG1 antibody (antibody, V domains shown)
VH: QVQLVQSGAEVKKPGASVKVSCKGSGYPFTDYTIHWVRQAPGQGLEWIGHISTYSGNTNNNQKFKGRATMTVDKSTSTAYMELRSLRSDDTAVYYCARGDYYGSFYKFEYWGQGTTVTVSS
VL: DIKMTQSPSSLSASVGDRVTITCGASENIYGALNWFQRKPGKAPKLLIYGATNLADGMPSRFSGSGSGRDFTLTISSLQPEDFATYFCQNVLSIPYTFGQGTKLEIK
B10: PTA-2357 VH3/VK2 IgG1 antibody (antibody, V domains shown)
VH: B9 VH with A92T
VL: B9 VL
B11: PTA-2357 VH1/VK2 IgG1 antibody (antibody, V domains shown)
VH: B9 VH with A9P, V11L, P41H, T91S, A92T
VL: B9 VL
B12: PTA-2357 VH2/VK2 IgG1 antibody (antibody, V domains shown)
VH: B9 VH with P41H, T91S, A92T
VL: B9 VL
B13: PTA-2357 VH2/VK3 IgG1 antibody (antibody, V domains shown)
VH: B9 VH with P41H, T91S, A92T
VL: B9 VL with K3Q
B14: PTA-2358 VH3/VK2 IgG1 antibody (antibody, V domains shown)
VH: B1 VH with L11V, K38R
VL: B1 VL with E84A
B15: PTA-2358 VH2/VK3 IgG1 antibody (antibody, V domains shown)
VH: B1 VH with L11V
VL: B1 VL with L4M, E84A, T89V
B16: PTA-2358 VH1/VK2 IgG1 antibody (antibody, V domains shown)
VH: B1 VH
VL: B1 VL with E84A
B17: PTA-2358 VH4/VK3 IgG1 antibody (antibody, V domains shown)
VH: B1 VH with L11V, K38R, N77S
VL: B1 VL with L4M, E84A, T89V
B18: PTA-2358 VH1/VK3 IgG1 antibody (antibody, V domains shown)
VH: B1 VH
VL: B1 VL with L4M, E84A, T89V
B19: PTA-2358 VH3/VK3 IgG1 antibody (antibody, V domains shown)
VH: B1 VH with L11V, K38R
VL: B1 VL with L4M, E84A, T89V
B20: PTA-2358 VH5/VK3 IgG1 antibody (antibody, V domains shown)
VH: B1 VH with L11V, L20V, K38R, L70I, N77S, L81M
VL: B1 VL with L4M, E84A, T89V
B21: PTA-2357 VH4/VK1 IgG1 antibody (antibody, V domains shown)
VH: B9 VH
VL: B9 VL with P40Q, K103Q
B22: PTA-2357 VH3/VK1 IgG1 antibody (antibody, V domains shown)
VH: B9 VH with A92T
VL: B9 VL with P40Q, K103Q
B23: PTA-2357 VH5/VK2 IgG1 antibody (antibody, V domains shown)
VH: B9 VH with A68V
VL: B9 VL
B24: PTA-2357 VH2/VK1 IgG1 antibody (antibody, V domains shown)
VH: B9 VH with P41H, T91S, A92T
VL: B9 VL with P40Q, K103Q
B25: PTA-2357 VH5/VK1 IgG1 antibody (antibody, V domains shown)
VH: B9 VH with A68V
VL: B9 VL with P40Q, K103Q
B26: PTA-2357 VH1/VK3 IgG1 antibody (antibody, V domains shown)
VH: B9 VH with A9P, V11L, P41H, T91S, A92T
VL: B9 VL with K3Q
B27: PTA-2357 VH4/VK3 IgG1 antibody (antibody, V domains shown)
VH: B9 VH
VL: B9 VL with K3Q
B28: PTA-2357 VH1/VK1 IgG1 antibody (antibody, V domains shown)
VH: B9 VH with A9P, V11L, P41H, T91S, A92T
VL: B9 VL with P40Q, K103Q
B29: PTA-2357 VH3/VK3 IgG1 antibody (antibody, V domains shown)
VH: B9 VH with A92T
VL: B9 VL with K3Q
B30: PTA-2357 VH5/VK3 IgG1 antibody (antibody, V domains shown)
VH: B9 VH with A68V
VL: B9 VL with K3Q

biological target: antigen on NCI-H187 classic small cell lung carcinoma cells (ATCC Number: CRL-5804) recognised by PTA-2358; test: competition flow cytometry on NCI-H187 cells against mouse PTA-2358; NS0-derived

Relative IC50 (fold of chimeric PTA-2358) | Binder
1.11 | B1
1.11 | B2
2.65 | B3
1.03 | B4
1.49 | B5
1.65 | B6
1.12 | B7
1.03 | B8

biological target: antigen on NCI-H187 classic small cell lung carcinoma cells (ATCC Number: CRL-5804) recognised by PTA-2357; test: competition flow cytometry on NCI-H187 cells against mouse PTA-2357; NS0-derived

Relative IC50 (fold of chimeric PTA-2357) | Binder
1.34 | B9
1.06 | B10
1.06 | B11
1.16 | B12
1.23 | B13

biological target: antigen on NCI-H187 classic small cell lung carcinoma cells (ATCC Number: CRL-5804) recognised by PTA-2358; test: competition flow cytometry on NCI-H187 cells against mouse PTA-2358; CHO-K1-derived

Relative IC50 (fold of chimeric PTA-2358) | Binder
1.09 | B1
1.81 | B14
1.68 | B2
1.48 | B3
> 3 | B15
1.28 | B4
1.68 | B5
1.69 | B6
1.09 | B7
2.38 | B16
> 3 | B17
1.29 | B8
2.68 | B18
2.43 | B19
> 3 | B20

biological target: antigen on NCI-H187 classic small cell lung carcinoma cells (ATCC Number: CRL-5804) recognised by PTA-2357; test: competition flow cytometry on NCI-H187 cells against mouse PTA-2357; CHO-K1-derived

Relative IC50 (fold of chimeric PTA-2357) | Binder
1.5 | B9
> 3 | B21
> 3 | B22
2.43 | B23
> 3 | B24
1.57 | B10
> 3 | B25
1.2 | B11
2 | B26
2.06 | B27
1.36 | B12
> 3 | B28
1.64 | B29
0.82 | B13
> 3 | B30
